Experiment [1] addresses human C3b (human) (UniProt P01024). The experiment is described as follows: ELISA; plates coated with human C3b at 15 nM overnight at 4°C in 50 mM NaHCO3 buffer pH 9.6, blocked with 4% BSA in PBS-T; serially diluted FH CCP 15–20 or CCP 18–20 samples (concentrated supernatants) incubated 1 h at 37°C; bound FH detected with goat antiserum to human FH. For orientation: In an ELISA, binding on a coated surface is turned into a signal by an enzyme label.

Experiment [2] shares this target. The experiment is described as above. This is another data set of the same source.

Read-outs that look alike come from different tables or passages of the source.

Sequence of UniProt P01024 (P01024 749-1663, chain 1 of 2): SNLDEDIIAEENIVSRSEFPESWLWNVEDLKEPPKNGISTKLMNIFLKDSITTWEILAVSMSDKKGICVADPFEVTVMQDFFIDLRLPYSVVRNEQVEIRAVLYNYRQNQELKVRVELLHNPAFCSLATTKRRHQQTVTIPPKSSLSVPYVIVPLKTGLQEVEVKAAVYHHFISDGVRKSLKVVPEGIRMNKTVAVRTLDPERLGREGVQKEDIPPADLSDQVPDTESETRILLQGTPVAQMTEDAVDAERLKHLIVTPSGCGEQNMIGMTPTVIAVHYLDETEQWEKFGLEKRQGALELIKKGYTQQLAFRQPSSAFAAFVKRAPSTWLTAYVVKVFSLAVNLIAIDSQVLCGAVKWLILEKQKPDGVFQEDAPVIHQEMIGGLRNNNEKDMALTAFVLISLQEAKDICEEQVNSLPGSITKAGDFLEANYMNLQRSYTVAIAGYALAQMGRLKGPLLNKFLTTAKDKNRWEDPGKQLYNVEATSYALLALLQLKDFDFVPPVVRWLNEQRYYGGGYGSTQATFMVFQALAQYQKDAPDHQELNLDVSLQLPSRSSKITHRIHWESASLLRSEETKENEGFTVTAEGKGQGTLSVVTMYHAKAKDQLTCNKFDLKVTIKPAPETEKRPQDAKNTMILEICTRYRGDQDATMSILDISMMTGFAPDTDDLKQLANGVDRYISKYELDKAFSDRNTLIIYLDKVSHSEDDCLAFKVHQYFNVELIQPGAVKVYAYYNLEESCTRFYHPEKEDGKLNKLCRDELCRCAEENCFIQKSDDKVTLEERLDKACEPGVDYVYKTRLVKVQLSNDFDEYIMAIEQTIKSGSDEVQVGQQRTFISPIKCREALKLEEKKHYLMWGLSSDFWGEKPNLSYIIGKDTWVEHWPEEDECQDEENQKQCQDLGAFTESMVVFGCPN
Sequence of UniProt P01024 (P01024 749-1663, chain 2 of 2): as the sequence (P01024 749-1663, chain 1 of 2) above

Consider “Factor H CCP 15–20 fragment, variant T956M (domain or fragment)”, for which the percent decrease in C3b binding compared to WT in experiment [1] was found to be 30%; in experiment [2], 35%.

The values above are taken from publication PMC8666976.
